In publication PMC10636207 one finds binding data, which are given here for two sequences.

This data set addresses T1, DcuR-His6 (Escherichia coli O157:H7 EDL933?) (UniProt P0AD02).
T1 sequence: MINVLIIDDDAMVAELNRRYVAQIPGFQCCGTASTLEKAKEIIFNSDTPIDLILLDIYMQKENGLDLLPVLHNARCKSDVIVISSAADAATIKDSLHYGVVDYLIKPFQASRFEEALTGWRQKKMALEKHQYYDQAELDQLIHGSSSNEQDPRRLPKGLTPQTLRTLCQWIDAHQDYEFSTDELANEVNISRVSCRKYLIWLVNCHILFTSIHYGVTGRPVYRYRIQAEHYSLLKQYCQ
Put plainly: EMSA.

“AGATTCATCTGCAGGCTCTGAAGTAAGTATACGTGTGAATATTATTGCTTGAAAAAGCGTATTGGATAATATATACAGTATATGTACTTTATGTACATTGCAACTATTTAAATAATATAATAGTTGCCTATGGGATAATTTGGTTATTTATAACCAGGTAAATGTCTAAATTAGACAAAAGGAGAAAGATCAATGGAAGCAGCAAATTTAAGTCCTTCTGGTGCAGTAATG (double strand) [PLEE2/3]”: the binding entry is listed as “no binding”.

On to “CATTAGCCATTGGAAACTCACGTAATCATTAATTATGAATATTCCATTAAATAGTACTGTACAACAGCTTCCTTTCTACTCTATTCTTAGACGATGTAAGTTCACCATATTTTTTCTCATTGTTCAACCACCAGGATGAATAAAATTTAAAAATGTTATCCTCATATAAAATAAAACTTCTCAATGGTGCGATGCG (double strand) [PLEE4]”, for which the binding result is “no binding”.
